The source of these data is the supplement of paper PMC9112550, “Optimization of the antimicrobial peptide Bac7 by deep mutational scanning” (BMC Biology, 2022).
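Further: peptides expressed intracellularly from a pBAD plasmid library in pooled LB shake-flask culture, induced with 0.3% L-arabinose, DNA abundance read by NGS, three biological replicates, DESeq2 with apeglm shrinkage.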

The test system of this data set is Escherichia coli TOP10. Put plainly: shrunken log2 fold change of peptide-encoding DNA abundance (4.5 h post-induction vs induction); higher = less antimicrobial activity (less host growth inhibition). Conditions: time post-induction: 4.5 h; library: site-saturation at positions 5, 18, 19, 20.
As for RRIRDRPPRLPRPRPRPFTAPRP, the “shrunken log2 fold change” value is -0.128. As for RRIRLRPPRLPRPRPRPRTHPRP, the “shrunken log2 fold change” value is 0.189.

For the sequence RRIRQRPPRLPRPRPRPCMMPRP, the “shrunken log2 fold change” value is -0.498.

For the sequence RRIRQRPPRLPRPRPRPMVEPRP, the “shrunken log2 fold change” value was 0.168.

In the case of RRIRLRPPRLPRPRPRPSDDPRP, the “shrunken log2 fold change” value was -0.34. The value for RRIRHRPPRLPRPRPRPWMRPRP was 0.101. For RRIRHRPPRLPRPRPRPFDQPRP, the “shrunken log2 fold change” value was -0.0783. RRIRNRPPRLPRPRPRPIQQPRP: the “shrunken log2 fold change” value is -0.000431. In the case of RRIRQRPPRLPRPRPRPESRPRP, the “shrunken log2 fold change” value was -0.00904. With RRIRHRPPRLPRPRPRPHDWPRP the figure was 0.0241. With RRIRSRPPRLPRPRPRPQIAPRP the figure was -0.102; with RRIRLRPPRLPRPRPRPTNAPRP, 0.00567. Consider RRIRNRPPRLPRPRPRPYKYPRP, for which the “shrunken log2 fold change” value is -0.369.

For RRIRWRPPRLPRPRPRPFFPPRP, the “shrunken log2 fold change” value was -0.0359. The value for RRIRLRPPRLPRPRPRPSTAPRP was -1.05; that for RRIRTRPPRLPRPRPRPILLPRP was -0.658; that for RRIRMRPPRLPRPRPRPINMPRP was -0.0607. The value for RRIRMRPPRLPRPRPRPPRQPRP was 1.43.

For RRIRMRPPRLPRPRPRPAKLPRP, the “shrunken log2 fold change” value came out at 0.441. In the case of RRIRIRPPRLPRPRPRPPITPRP, the “shrunken log2 fold change” value was -0.366.

For RRIRIRPPRLPRPRPRPYKSPRP, the “shrunken log2 fold change” value is -1.14. Take RRIRMRPPRLPRPRPRPCLCPRP: the “shrunken log2 fold change” value is -0.0635. With RRIRARPPRLPRPRPRPRRLPRP the figure was 0.537; with RRIRLRPPRLPRPRPRPFNIPRP, -0.0972. In the case of RRIRKRPPRLPRPRPRPLKMPRP, the “shrunken log2 fold change” value is 0.0436.

Consider RRIRIRPPRLPRPRPRPSYPPRP, for which the “shrunken log2 fold change” value is -0.56. RRIRMRPPRLPRPRPRPCLKPRP: the “shrunken log2 fold change” value was 0.12. The value for RRIRKRPPRLPRPRPRPHDPPRP was 0.282; that for RRIRTRPPRLPRPRPRPIDYPRP was -0.231; that for RRIRFRPPRLPRPRPRPLCKPRP was 0.0214. Take RRIRHRPPRLPRPRPRPVWRPRP: the “shrunken log2 fold change” value stood at 0.0724. Take RRIRLRPPRLPRPRPRPFVHPRP: the “shrunken log2 fold change” value was -0.308. The value for RRIRIRPPRLPRPRPRPESRPRP was 0.0553; that for RRIRRRPPRLPRPRPRPMCNPRP was 0.0275.

With RRIRCRPPRLPRPRPRPVQIPRP, the “shrunken log2 fold change” value is -0.0351. RRIRGRPPRLPRPRPRPHMVPRP: the “shrunken log2 fold change” value is -0.0598. With RRIRQRPPRLPRPRPRPASEPRP the figure was -0.019. The value for RRIRPRPPRLPRPRPRPLPSPRP was 0.0677; that for RRIRERPPRLPRPRPRPHSMPRP was -0.126. RRIRKRPPRLPRPRPRPLMGPRP: the “shrunken log2 fold change” value came to 0.818. The value for RRIRRRPPRLPRPRPRPDTPPRP was 0.342. The value for RRIRQRPPRLPRPRPRPVDTPRP was -0.183.

As for RRIRVRPPRLPRPRPRPQVWPRP, the “shrunken log2 fold change” value amounted to 0.345.

Turning to RRIRFRPPRLPRPRPRPVKQPRP, the “shrunken log2 fold change” value is -0.0303. The value for RRIRHRPPRLPRPRPRPAMDPRP was -0.221. Turning to RRIRHRPPRLPRPRPRPFVWPRP, the “shrunken log2 fold change” value was -0.0616.

As to RRIRRRPPRLPRPRPRPIHQPRP, the “shrunken log2 fold change” value was -0.136. Take RRIRARPPRLPRPRPRPSEYPRP: the “shrunken log2 fold change” value was -0.264. Consider RRIRERPPRLPRPRPRPKEQPRP, for which the “shrunken log2 fold change” value worked out at 0.0401. The value for RRIRCRPPRLPRPRPRPWTFPRP was -0.126. The value for RRIRWRPPRLPRPRPRPHANPRP was -0.00914; that for RRIRERPPRLPRPRPRPLACPRP was -0.269; that for RRIRQRPPRLPRPRPRPPMPPRP was 0.237. With RRIRWRPPRLPRPRPRPTVPPRP the figure was 0.0399; with RRIRHRPPRLPRPRPRPPLIPRP, -0.0533; with RRIRVRPPRLPRPRPRPPQLPRP, 0.0208. RRIRERPPRLPRPRPRPHDHPRP: the “shrunken log2 fold change” value is -0.224. On to RRIRCRPPRLPRPRPRPGKHPRP, for which the “shrunken log2 fold change” value is -0.423.

As to RRIRQRPPRLPRPRPRPLDDPRP, the “shrunken log2 fold change” value was -0.0837.

RRIRTRPPRLPRPRPRPSQEPRP: the “shrunken log2 fold change” value is -0.184. With RRIRRRPPRLPRPRPRPGEQPRP the figure was 0.301; with RRIRVRPPRLPRPRPRPIRQPRP, -0.294. For RRIRLRPPRLPRPRPRPACAPRP, the “shrunken log2 fold change” value is 0.541. Turning to RRIRARPPRLPRPRPRPHVRPRP, the “shrunken log2 fold change” value was -0.0112. Take RRIRYRPPRLPRPRPRPWRGPRP: the “shrunken log2 fold change” value turned out to be 0.318. The value for RRIRPRPPRLPRPRPRPYNNPRP was -1.25; that for RRIRQRPPRLPRPRPRPTEAPRP was -0.0735; that for RRIRQRPPRLPRPRPRPQVTPRP was -0.00931. The value for RRIRGRPPRLPRPRPRPVMVPRP was 0.128. On to RRIRTRPPRLPRPRPRPGMLPRP, for which the “shrunken log2 fold change” value is -0.141. With RRIRMRPPRLPRPRPRPVNSPRP the figure was 0.00706.

Turning to RRIRWRPPRLPRPRPRPVYPPRP, the “shrunken log2 fold change” value is -0.104.

With RRIRWRPPRLPRPRPRPNWSPRP, the “shrunken log2 fold change” value is -0.0695. With RRIRARPPRLPRPRPRPVGFPRP, the “shrunken log2 fold change” value turned out to be 0.516. With RRIRDRPPRLPRPRPRPRHPPRP the figure was 0.0563.

For RRIRGRPPRLPRPRPRPFVSPRP, the “shrunken log2 fold change” value was -0.166. On to RRIRHRPPRLPRPRPRPSGYPRP, for which the “shrunken log2 fold change” value is -0.0698. As to RRIRVRPPRLPRPRPRPSENPRP, the “shrunken log2 fold change” value is 0.0175. The value for RRIRNRPPRLPRPRPRPHMPPRP was -0.0765; that for RRIRWRPPRLPRPRPRPASQPRP was 0.271; that for RRIRERPPRLPRPRPRPFQFPRP was -0.062. With RRIRNRPPRLPRPRPRPPLSPRP the figure was 0.502.

As to RRIRWRPPRLPRPRPRPNNKPRP, the “shrunken log2 fold change” value is -0.392. Consider RRIRIRPPRLPRPRPRPFFEPRP, for which the “shrunken log2 fold change” value was -0.267. RRIRGRPPRLPRPRPRPEDMPRP: the “shrunken log2 fold change” value stood at 1.02. With RRIRTRPPRLPRPRPRPSHVPRP, the “shrunken log2 fold change” value was 2.39. With RRIRPRPPRLPRPRPRPMGFPRP the figure was -0.0125. As to RRIRVRPPRLPRPRPRPLMRPRP, the “shrunken log2 fold change” value was found to be 0.515.

Regarding RRIRTRPPRLPRPRPRPGDPPRP, the “shrunken log2 fold change” value is 0.106.

Take RRIRFRPPRLPRPRPRPRGRPRP: the “shrunken log2 fold change” value came to 0.454. With RRIRTRPPRLPRPRPRPGSRPRP the figure was 0.365. In the case of RRIRYRPPRLPRPRPRPSPCPRP, the “shrunken log2 fold change” value was -0.8. The value for RRIRVRPPRLPRPRPRPYCRPRP was -0.213; that for RRIRLRPPRLPRPRPRPQYYPRP was -0.396.

Turning to RRIRFRPPRLPRPRPRPYLWPRP, the “shrunken log2 fold change” value is -0.309. With RRIRTRPPRLPRPRPRPEMFPRP the figure was -0.0156; with RRIRQRPPRLPRPRPRPGYHPRP, -0.108; with RRIRMRPPRLPRPRPRPGVGPRP, 0.841.

RRIRNRPPRLPRPRPRPRDVPRP: the “shrunken log2 fold change” value worked out at 0.0624. In the case of RRIRARPPRLPRPRPRPLVWPRP, the “shrunken log2 fold change” value stood at 0.774. As for RRIRPRPPRLPRPRPRPVQRPRP, the “shrunken log2 fold change” value stood at 0.0521. As for RRIRIRPPRLPRPRPRPEAQPRP, the “shrunken log2 fold change” value stood at 0.0863.

For the sequence RRIRVRPPRLPRPRPRPAPDPRP, the “shrunken log2 fold change” value was 0.377. The value for RRIRWRPPRLPRPRPRPWDRPRP was 0.215; that for RRIRDRPPRLPRPRPRPGPVPRP was 0.545; that for RRIRYRPPRLPRPRPRPDDNPRP was 0.0238.

As to RRIRLRPPRLPRPRPRPLFLPRP, the “shrunken log2 fold change” value was -0.551.

For the sequence RRIRPRPPRLPRPRPRPRPVPRP, the “shrunken log2 fold change” value came to 0.528. With RRIRWRPPRLPRPRPRPNGPPRP the figure was -0.0107; with RRIRCRPPRLPRPRPRPIGIPRP, -0.303; with RRIRQRPPRLPRPRPRPKYNPRP, -0.879. The value for RRIRSRPPRLPRPRPRPQDFPRP was -0.161; that for RRIRMRPPRLPRPRPRPNCRPRP was -0.135. With RRIRSRPPRLPRPRPRPGDEPRP the figure was 0.0674. RRIRSRPPRLPRPRPRPYGWPRP: the “shrunken log2 fold change” value turned out to be 0.328. For the sequence RRIRYRPPRLPRPRPRPEYWPRP, the “shrunken log2 fold change” value is -0.692. With RRIRSRPPRLPRPRPRPDIVPRP, the “shrunken log2 fold change” value is 0.252. Turning to RRIRDRPPRLPRPRPRPRKIPRP, the “shrunken log2 fold change” value worked out at 0.0843. Consider RRIRFRPPRLPRPRPRPVPRPRP, for which the “shrunken log2 fold change” value worked out at 0.384. Take RRIRRRPPRLPRPRPRPHQGPRP: the “shrunken log2 fold change” value amounted to 0.0901. For RRIRSRPPRLPRPRPRPEMQPRP, the “shrunken log2 fold change” value amounted to 0.0419. With RRIRSRPPRLPRPRPRPQGIPRP the figure was 0.0897; with RRIRWRPPRLPRPRPRPNFTPRP, -0.0319. In the case of RRIRNRPPRLPRPRPRPRHFPRP, the “shrunken log2 fold change” value was -0.201. With RRIRGRPPRLPRPRPRPCWCPRP the figure was 0.171.
